The target in this assay is T1, murine EpCAM recombinant ectodomain (ECD), C-terminally His-Avi tagged (mouse).
T1 construct: also called mu EpCAM; EpCAM ECD
T1 chain: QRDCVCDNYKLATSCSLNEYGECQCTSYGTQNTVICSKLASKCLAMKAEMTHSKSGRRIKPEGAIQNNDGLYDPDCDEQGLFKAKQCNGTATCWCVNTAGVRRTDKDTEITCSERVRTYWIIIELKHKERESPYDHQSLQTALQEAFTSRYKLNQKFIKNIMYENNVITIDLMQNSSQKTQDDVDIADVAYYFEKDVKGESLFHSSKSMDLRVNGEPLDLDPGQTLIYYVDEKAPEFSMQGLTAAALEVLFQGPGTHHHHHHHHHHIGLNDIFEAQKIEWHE
Briefly: SPR (Biacore), antibody captured by anti-mouse IgG, EpCAM ECD as analyte, 37 C. The source says: This system is well established for the study of molecule interactions. It allows a continuous real-time monitoring of ligand/analyte bindings and thus the determination of association rate constants (ka), dissociation rate constants (kd), and equilibrium constants (KD) in various assay settings. SPR-technology is based on the measurement of the refractive index close to the surface of a gold coated biosensor chip. Changes in the refractive index indicate mass changes on the surface caused by the interaction of immobilized ligand with analyte injected in solution. If molecules bind to immobilized ligand on the surface the mass increases, in case of dissociation the mass decreases. For capturing, a goat anti-mouse IgG antibody was immobilized on the surface of a CM5 biosensorchip using amine-coupling chemistry according to the manufacturer's instructions. Flow cells were activated with a 1:1 mixture of 0.1 M N-hydroxysuccinimide and 0.4 M 1-ethyl-3-(3-dimethylaminopropyl)-carbodiimide hydrochloride at a flow rate of 5 μl/min at 25° C. Anti-mouse IgG antibody was injected in 10 mM sodium acetate, pH 4.5 at 10 μg/mL. A reference control flow cell was treated in the same way but with vehicle buffers only instead of the capturing antibody. Surfaces were blocked with an injection of 1 M ethanolamine/HCl pH 8.5. […] All interactions were performed at 37° C., using PBS-T as running buffer. The analytes were injected in a series of threefold increasing concentrations (EGFR ECD 4.12-1000 nM and EpCAM ECD 0.91-2000 nM in PBS-T+0.1% BSA) with a flow rate of 50 μl/min, 180 sec association, 1200 sec dissociation. The capture antibody was regenerated after each cycle with 10 mM glycine, pH 2.0 at a flow rate of 30 μl/min for 60 sec. Signals were detected at a rate of one signal per second.
Background: Surface plasmon resonance follows binding to a sensor surface in real time, without labels.

B1: G8.8 (mouse EpCAM-specific antibody) (antibody, mouse IgG2a, kappa, V domains shown)
VH: EVQLAESGGGLVQPGRSMKLSCAASGFTFSNFPMAWVRQAPTKGLEWVATISTSGGSTYYRDSVKGRFTISRDNAKSTLYLQMNSLRSEDTATYYCTRTLYILRVFYFDYWGQGVMVTVSS
VL: DIQMTQSPASLSASLGETVSIECLASEGISNDLAWYQQKSGKSPQLLIYATSRLQDGVPSRFSGSGSGTRYSLKISGMQPEDEADYFCQQSYKYPWTFGGGTKLELKR
notes: Full heavy and light chains; also called EpCAM G8.8; anti-EpCAM mono-specific antibody
One may read the Kd as the concentration at which binding is half-saturated. As a reminder, the koff is the first-order rate constant of dissociation. Usually kon stands for the rate constant with which the complex forms. Consider B1, for which the Kd came out at 61 nM, the koff was 0.013 s⁻¹ and the kon was 220000 M⁻¹ s⁻¹.

These data come from patent US20200317806A1 (Hoffmann-La Roche, published 2020).
